In assay [1] the target is T1, NP-1/Fc (R&D Systems).
T1 construct: Bought reagent; also called Neuropilin-1/Fc; Npn-1
Nature of the assay: fluorescence polarization, competition of OG-labeled D41 binding to NP-1/Fc. As for the experimental part: (§1) The ability of various compositions comprising TKPPR monomers or multimers to bind to NP-1/Fc and KDR-Fc was evaluated using FP. […] FP values (mP) for each substrate was measured by titrating the ligand (5-20 nM) with receptor protein using a Jolley Research and Consulting FPM-1 fluorescence Polarization analyzer. In each of these experiments the observed polarization values were plotted against receptor concentration. The mP values for 100% binding of tracer labeled ligand to receptor protein was calculated using the software provided by the vendor.
A general note: In fluorescence polarisation assays a small probe gives low polarisation when free and higher when bound to something large.

In assay [2] the target is T1, NP-1/Fc (R&D Systems). The assay is described as follows: competition with 250 pM 125I-VEGF165 for plate-coated NP-1/Fc. On the procedure:
(§2) Competitive binding assays with microtiter plates coated with NP-1/Fc (R&D systems) were performed using ¹²⁵I-VEGF₁₆₅ as radioligand (Amersham Pharmacia Biotech Cat. No. IM274, Specific Activity: 1000-2500 Ci/mmol). An assay buffer consisting of Hank's Balanced Salt Solution (HBSS), 25 mM HEPES, and 0.1% BSA, pH 7.4 was used, and for all experiments, Assay volume per well was 75 μL. Plates (Nunc MaxiSorp white opaque Microtiter plate [C-bottom, 437796]) were coated by incubating the wells with 75 μL of a solution containing 3 μg/mL NP-1/Fc in D-PBS/0.1% NaAzide overnight at 4° C. after covering with sealing tape (Dynex, VWR Cat. No. 62402-931). The next day all wells, even control wells lacking NP-1/Fc, were blocked 2 hrs with blocking buffer (1% BSA in D-PBS with 0.05% v/v Tween-20) then washed 4× with PBST (D-PBS/0.05% v/v Tween-20) before starting the assay. All points were derived from triplicate wells, and for each set of replicates in NP-1/Fc-coated wells, a companion set in the absence of the receptor was included. […] Solutions were added to 1.2 mL polypropylene tubes conforming to the microtiter format (Costar Cat. No. 29442-602), and transferred from these tubes to microtiter wells, without further dilution, using a multichannel pipetter. After addition of the appropriate solutions, microtiter plates were incubated at 4° C. for 2 hours. Following the incubation, plates were handwashed 5 times with D-PBS containing 0.05% Tween-20 and 0.1% BSA. The plates were blotted dry and 25 μL deionized water and 100 μL scintillation fluid (Optiphase SuperMix, Wallac) were added to each well. Plates were agitated using a Plate Shaker (Hyperion, Cat. No. 4030-100F) for 3-5 minutes and were then counted using a Microplate Scintillation Counter (Wallac Microbeta Trilux). A set of serially diluted ¹²⁵I-VEGF₁₆₅ standard wells ranging from 200 to 0.04 pM were included with each experiment to aid in quantification of the amount of radiolabel bound. VEGF₁₆₅ (Cat. No. 100-20) was obtained from Peprotech.

Assay [3] has as its target T1, NP-1/Fc (R&D Systems). Nature of the assay: fluorescence polarization, OG-labeled ligand (5-20 nM) titrated with NP-1/Fc, 37 C. On the procedure: as §1
Assay [4] has as its target T2, neuropilin-1 on HUVEC (neuropilin-1-expressing cells) (human, UniProt O14786 22-923).
T2 construct: whole, on cells; The assay was done on whole HUVEC; also called NP-1; endothelial cells
Nature of the assay: Qdot binding to HUVEC, fluorescence microscopy. As for the experimental part:
Human umbilical vein endothelial cells (HUVEC) were grown to near confluency on collagen 1-coated 8-well chamber slides (BD Biosciences) in EGM-2 medium (Cambrex). […] The slides were incubated 45 min at 37° C. in a tissue culture incubator with 5% CO₂ then incubated an additional 45 min at room temperature in ambient air. After washing five times with D-PBS (30 sec per wash), the cells were fixed with ice-cold acetone for 2 min, rinsed again with D-PBS, and mounted with SlowFade+Dapi (Molecular Probes). The slide wells were examined with a fluorescence microscope equipped with a filter set optimized for 655 nm quantum dots (Omega).

The target in assay [5] is T3, NP-1/Fc (R&D Systems).
T3 chain: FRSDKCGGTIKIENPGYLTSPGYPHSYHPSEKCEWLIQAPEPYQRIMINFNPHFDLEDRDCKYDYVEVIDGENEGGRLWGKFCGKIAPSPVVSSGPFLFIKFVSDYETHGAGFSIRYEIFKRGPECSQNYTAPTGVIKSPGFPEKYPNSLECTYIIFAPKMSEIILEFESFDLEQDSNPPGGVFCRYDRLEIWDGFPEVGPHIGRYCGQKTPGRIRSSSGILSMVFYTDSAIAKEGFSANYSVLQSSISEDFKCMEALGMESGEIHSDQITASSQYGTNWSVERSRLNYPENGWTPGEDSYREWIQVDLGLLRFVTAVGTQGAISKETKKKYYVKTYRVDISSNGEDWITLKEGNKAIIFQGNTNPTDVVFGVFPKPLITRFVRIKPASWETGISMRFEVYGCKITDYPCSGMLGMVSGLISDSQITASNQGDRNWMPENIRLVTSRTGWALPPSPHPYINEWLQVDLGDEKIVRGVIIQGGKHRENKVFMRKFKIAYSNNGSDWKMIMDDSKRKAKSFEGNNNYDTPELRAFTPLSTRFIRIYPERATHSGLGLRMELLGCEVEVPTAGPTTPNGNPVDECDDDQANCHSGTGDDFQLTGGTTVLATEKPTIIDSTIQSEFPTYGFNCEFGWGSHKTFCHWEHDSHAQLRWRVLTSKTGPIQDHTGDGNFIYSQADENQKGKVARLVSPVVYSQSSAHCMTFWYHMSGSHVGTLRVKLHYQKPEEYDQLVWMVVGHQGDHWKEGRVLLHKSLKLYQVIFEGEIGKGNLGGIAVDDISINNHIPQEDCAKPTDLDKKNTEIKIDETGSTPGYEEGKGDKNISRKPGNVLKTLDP
Nature of the assay: fluorescence polarization, competition of OG-labeled D41 binding to NP-1/Fc. As for the experimental part:
as §1

Assay [6] has as its target T3, NP-1/Fc (R&D Systems). The assay is described as follows: competition with 250 pM 125I-VEGF165 for plate-coated NP-1/Fc. As for the experimental part:
as §2

The target in assay [7] is T4, soluble human KDR/Fc chimera (R&D Systems Inc.) (human, UniProt P35968 20-764).
T4 construct: Bought reagent; Fc part of the bought chimera not given, not described
T4 sequence (P35968 20-764, change not shown): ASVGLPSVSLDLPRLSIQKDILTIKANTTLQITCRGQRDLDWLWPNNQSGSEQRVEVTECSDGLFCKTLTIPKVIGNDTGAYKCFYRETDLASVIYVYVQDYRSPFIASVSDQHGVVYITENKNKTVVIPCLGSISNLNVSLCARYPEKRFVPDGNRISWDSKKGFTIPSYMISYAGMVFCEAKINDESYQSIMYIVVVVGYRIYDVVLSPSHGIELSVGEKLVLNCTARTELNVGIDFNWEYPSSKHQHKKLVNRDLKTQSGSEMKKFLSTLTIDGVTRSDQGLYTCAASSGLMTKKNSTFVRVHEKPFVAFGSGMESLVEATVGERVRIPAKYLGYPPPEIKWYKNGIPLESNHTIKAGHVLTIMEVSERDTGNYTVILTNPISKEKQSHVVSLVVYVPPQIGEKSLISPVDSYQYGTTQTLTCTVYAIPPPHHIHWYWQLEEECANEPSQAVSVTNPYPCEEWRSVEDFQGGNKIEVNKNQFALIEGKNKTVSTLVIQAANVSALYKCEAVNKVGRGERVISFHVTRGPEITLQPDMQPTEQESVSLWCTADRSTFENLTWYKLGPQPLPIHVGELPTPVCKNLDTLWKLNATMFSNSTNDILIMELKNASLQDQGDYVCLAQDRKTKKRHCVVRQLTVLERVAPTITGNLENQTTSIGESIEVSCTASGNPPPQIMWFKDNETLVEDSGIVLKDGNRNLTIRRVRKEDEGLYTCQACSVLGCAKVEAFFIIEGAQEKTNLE
The assay is described as follows: competition with 125I-VEGF165 for plate-coated KDR-Fc.

We go through nine molecules from patent US20060153775A1 (BRACCO INTERNATIONAL B V, published 2006).

Non-standard residues stand in square brackets, D forms with d. No end group written: not given here. AEEA = NCCOCCOCC(=O)O

T2 sequence (O14786 22-923): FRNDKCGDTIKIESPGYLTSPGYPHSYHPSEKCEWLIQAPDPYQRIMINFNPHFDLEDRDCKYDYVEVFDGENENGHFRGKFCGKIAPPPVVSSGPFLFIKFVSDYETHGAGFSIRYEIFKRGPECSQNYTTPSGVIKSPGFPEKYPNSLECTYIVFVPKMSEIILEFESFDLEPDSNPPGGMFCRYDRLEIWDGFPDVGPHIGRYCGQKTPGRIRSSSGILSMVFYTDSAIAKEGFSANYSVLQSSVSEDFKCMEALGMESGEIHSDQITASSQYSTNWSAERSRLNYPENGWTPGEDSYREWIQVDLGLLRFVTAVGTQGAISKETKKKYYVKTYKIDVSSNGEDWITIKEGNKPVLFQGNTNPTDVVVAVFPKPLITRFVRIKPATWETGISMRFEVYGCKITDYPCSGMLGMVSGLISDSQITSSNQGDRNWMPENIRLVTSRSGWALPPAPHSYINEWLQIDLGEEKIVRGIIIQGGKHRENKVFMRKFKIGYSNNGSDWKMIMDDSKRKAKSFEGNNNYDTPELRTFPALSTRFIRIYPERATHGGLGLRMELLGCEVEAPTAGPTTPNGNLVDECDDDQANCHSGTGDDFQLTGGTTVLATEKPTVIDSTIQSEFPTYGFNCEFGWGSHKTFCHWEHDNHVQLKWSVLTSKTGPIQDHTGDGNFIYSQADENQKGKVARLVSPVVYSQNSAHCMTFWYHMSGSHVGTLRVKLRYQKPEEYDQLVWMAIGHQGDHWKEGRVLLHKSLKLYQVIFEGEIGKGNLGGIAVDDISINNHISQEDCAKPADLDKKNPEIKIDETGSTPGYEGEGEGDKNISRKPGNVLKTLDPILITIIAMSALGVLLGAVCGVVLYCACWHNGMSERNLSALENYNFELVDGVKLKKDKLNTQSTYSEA

B1: TKPPR (L-threonyl-L-lysyl-L-prolyl-L-prolyl-L-arginine) (peptide)
peptide: TKPPR
notes: also called D45; TKPPR-OH
B1: the IC50 with NP-1/Fc (R&D Systems) [1] came to 80 µM; in the assay with NP-1/Fc (R&D Systems) [2] it was 43 µM.

B2: TKPPR tetramer D41, OG-(TKPPR)4 (peptide)
peptide: [AEEA]TKPPR
modifications: also: tetramer of four TKPPR on a branched non-peptide scaffold, one Oregon Green label on scaffold
notes: also called tetrameric TKPPR; fluorescently-labeled TKPPR tetramer
Take B2: the Kd in the assay with NP-1/Fc (R&D Systems) [3] was 25 to 50 nM. This molecule had an IC50 in the assay with NP-1/Fc (R&D Systems) [2] of 0.13 µM.

B3: Qdots conjugated with monomeric TKPPR (D51) (peptide)
peptide: TKPPR
modifications: also: further groups not given here
notes: The full structure of D51 ([M+H] 1004.5) stands only in a drawing; also called D51-conjugated Qdots; linear monomeric TKPPR-conjugated Qdots
For B3, the binding result in assay [4] was “binds”.

B4: VEGF165 (ligand, UniProt P15692-4 27-191, looked up)
chain: APMAEGGGQNHHEVVKFMDVYQRSYCHPIETLVDIFQEYPDEIEYIFKPSCVPLMRCGGCCNDEGLECVPTEESNITMQIMRIKPHQGQHIGEMSFLQHNKCECRPKKDRARQENPCGPCSERRKHLFVQDPQTCKCSCKNTDSRCKARQLELNERTCRCDKPRR
modifications: 125I label on the radioligand form (Amersham IM274)
notes: mature; The labelled and the unlabelled protein are kept as one molecule; also called unlabeled VEGF
Consider B4, for which the IC50 with NP-1/Fc (R&D Systems) [5] worked out at 200 nM; with NP-1/Fc (R&D Systems) [6], 0.0005 µM.

B5: Tuftsin (TKPR) (peptide)
peptide: TKPR
notes: Naturally occurring tetrapeptide, used as free peptide; also called free tuftsin
Take B5: the IC50 with NP-1/Fc (R&D Systems) [6] came out at 280 µM.

B6: TKPPR dimer D40, OG-(TKPPR)2 (peptide)
peptide: [AEEA]TKPPR
modifications: also: dimer on branched bis-acid scaffold carrying one Oregon Green
Turning to B6, in the assay with NP-1/Fc (R&D Systems) [2], the IC50 was 3 µM.

B7: TKPPR tetramer D43 on a lysine core with trioxa Oregon Green at the C-terminal (peptide)
peptide: TKPPR
modifications: also: tetramer: C-terminal Arg of each TKPPR linked to amino groups of branched Lys-Lys(Lys)-Gly core, Gly carries TTDA-Oregon Green
notes: The lysine core (three Lys and one Gly) is not written as a chain of its own; also called Reverse Tetramer; compound 16
For B7, the IC50 with NP-1/Fc (R&D Systems) [2] is 8 µM. This IC50 lies about 2.7-fold higher than the previous one.

B8: Oregon Green (5-isomer)-GTKPPR-OH (peptide)
peptide: {Oregon Green (5-isomer)}-GTKPPR-OH
notes: also called D44; OG-TKPPR
Take B8: the binding result in assay [7] is on record as “no binding”. For the same molecule, the IC50 with NP-1/Fc (R&D Systems) [6] came out at 30 µM.

B9: Qdots conjugated with tetrameric TKPPR (D50) (peptide)
peptide: [AEEA]TKPPR
modifications: also: four TKPPR on a branched scaffold, thiol coupled through LC-SMCC to quantum dots
notes: Many D50 molecules on each 655 nm quantum dot; also called D50-conjugated Qdots; branched tetrameric TKPPR-conjugated Qdots
For the molecule B9, in assay [4], the binding result is “binds”.

By IC50 is commonly meant the concentration at which inhibition is half-maximal. In general, Kd refers to the equilibrium constant for the complex coming apart. A lower Kd goes with tighter binding.
